Experimental data published in the nanobody polyreactivity screen of Harvey et al. (2022).

Assay: yeast display, Sf9 membrane polyspecificity reagent, FACS + sequencing; frameworks hold sequencing errors
Outline: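 In a synthetic yeast display library (Saccharomyces cerevisiae BJ5465), nanobody expression was induced with galactose for 36–48 hours. FACS gates were set low and high (top ~1%) using anti-HA fluorescence for expression and streptavidin fluorescence for binding of the Sf9 membrane reagent. Each polyreactivity label is drawn from the gate of origin.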

| Sequence | polyreactivity (PSR sort gate) |
| --- | --- |
| QVQLVESGGGIVQAGGRLRLSCAASGFTFGKYAMGWYRQAPGKERELVAAISRSGGSTYYADSVKGRFTISRDNAKFTVYLPMNSLKPVDTAVYYCAAYHPIQEYDYWGQGTQVTGSS | high polyreactivity |
| QVQLVESGGGLVQAGGSLRLICAASGNTFYGYAMGWYRQAPGKERELVASITLSGDSTYYADSVKGRFTISRDNAKNTVYLQMNSLKPEDTAVYYCNRARHQYSRWHGGYYYWGQGTQVTVSS | low polyreactivity |
| QVQLVESGGGLVQAGGSLRLSCAASGRIFGWYAMGWYRQAPGKERELVAGISSSSGSTNYADSVKGRFSISRDNAKNTVYLQMNSLKPEDTAVYYCAADGGGTYYSFYYWGQGTQVTVSS | low polyreactivity |
| QVQLVESGGGLVQAGGSLRLSCAASGRTFGRYARGWYRQAPGKETELVAAIRSGASTYYADSVKGRFTISRDNAKNTVYLQKNSLKPEDTAVYYCAVDTLQGARVTSPSGDYDYWGQGTQVTVSS | low polyreactivity |
| QVQLVESGGGLVQAGGSLRLSCAASGLTFWEYAMGWYRQAPGKERELVAAITWGGNTYYADSVKGRFTISRDNAKNTVYLQMNSLKPEDTAVYYCAARGYYLTGGFRRYYYWGQGTQVTVSS | high polyreactivity |
| QVQLVESGGGLVQAGGSLRLSCAASGSTFYSYVIGWYRQAPGRESELVAVITSGGSTTYADSVNGRFTISRDNAKNTVYLEMNSLIPEDTAVYYCNAAYYNTDTQKVTFDYWGQGTQVTVSS | low polyreactivity |
| QVQLVESGGGLVQAGGSLRLSCAASGSIFAANVMGWYRQAPGKERELVAVISGGGGRTFYADSVKGRFTISRDNAKNTVYLQMNSLKPEDTAVYYCAADRRDRSPYYYWGQGTQVTVSS | high polyreactivity |
| QVQLVESGGGLVQAGGSLRLRCAASGSTFYWNAMGWYRQAPGKERELVATITYSGGSTYYADSVKGRFTISRDNAKNTVYLQMNSLKPEDTAVYYCATGGLTWHYTYRGYYWGQGTQVTVSS | low polyreactivity |
| QVQLVESGGGLVQAGGSLRLSCAASGSIFRGNTMGWYRQAPGKERELLAAINWTGGSTYYADSVKGRFTISRDNAKYTVYLQMNSLKPEDTAVYYCAARKFTSYYWGRSYGYWGQGTQVTVSS | high polyreactivity |
| QVQLVESGGGLVQAGGSLRLSCAASGRTFRRYAIGWYRQAPGKERELVATISSGGSTNYADSVKGRFTISRDNAKNTVYLQMNSLKPEDTAVYYCATPQTRTYDYWGQGTQGTVSS | high polyreactivity |
| QVQLVESGRGLVQAGGSLRLSCAASGSIFVDYTMGWYRQAPGKERELVARITSGGSTYYADSVKGRFTISRDNAKNSVYLQMNSLKPEDTAVYYCAARPYYRYRNSWREQYYYWGQGTQVTVSS | high polyreactivity |
| QVQLVESGGGLDQAGGSLRLSCAASGITFPGYAMGWYRQAPGKERELVAAIDWSGDGTYYADSVKGRFTISRDNAKNTVYLQMNSLKPEDTAVYYCAKDNYPNHSTVLAVIYDYWGQGTQVTVSS | low polyreactivity |
| QVQLVESGGGLVQAGGILRLSCAASARIFTYKAMGWYRQAPGKERELVAAITNGGSTYYADSVKGRFTISRDNAKNTVYLQMNSMKPEDTAVYYCNRVVYRPRYRYGYWGQGTQVTVSS | high polyreactivity |
| QVQLVDSGGGLVQAGGSLRLSCAASGSTFVYNTMGWYSHAPGKERELVAAISYRGSTYYADSVKGRFTISRENAKNTVYLQMNSLKPEDTAVYYCNGPRRQYEYDFWGLGTQVTVSS | high polyreactivity |
| QVQLVESGGGLDQAGGSLRLSCAASGITFYDYAMGWYRQAPGKEREFVASITSSGGSTYYADSVKGRFTISRDNAKTTVYLQMNSLKPQDPAVYYCAARGYNPYGRKVGYWGQGTQVTVSS | high polyreactivity |
| QVQLVESGGGLVQAGGSLRLSCAASGSTFNAYAMGWYRQAPGKERELVAAISYTGGSTYYADSVKGRFTISRDNAKNTVYLQMNSLKPDDTAVYYCARRQARKFYYWGQGTQVTVSS | high polyreactivity |
| QVQLVESGGGLVQAGCSLRLSCAASGSNFEENAMGWYRQAPGKESELVAAITIGGRTNYADSVKGRFTISRDNAKNTVYLQMNSLKPEDTAVYYCAADLSSNKYWRFWTRYYYWGQGTQVTVSS | low polyreactivity |
| QVQLVESGGGLVQAGGSLRLSCAASGRIFQYYAMGWYRQAPGKERELVAAISRGGSTNYADSVKGRFTISRDNAKNTVYLQMNSLKPEDTAVYFCAADEYRYYFYRAGIGFDYWGQGTQVTVSS | low polyreactivity |
| QVQLVESGGCLVQAGGSLRLSCAASGHIFTFYAMGWYRQAPGKERELVATIRWSGGSTYYADSVKGRFTISRDNAKNTVYLQMNSLKPEDTAVYYCAATYYPSSYVQRLDYWGQGTQVTVSS | low polyreactivity |
| QVQLVESGGGLVQAGGSLRLSCAASGRIFSYYAMGWYRQAPGKERELVATINSGGSTNYADSVKGRFTISRDNAKNTVYLQMNSLKPEDTAVYYCAASPVWWYDYWGQGTQVTVSS | low polyreactivity |
| QVQLVESGGGLVQAGGSLRLSCAASGFIYRVYGMGWYRQAPVKERELLAAISGRGGSTYYADSVKGRFTISRDNANNTVYLQMHSLKPEDTAVYYCYTLDIRTYSKYDYWGQGTQVTVSS | high polyreactivity |
| QVQLVESGGGLVQAGGSLRLSCAASGFTFPYYAMGWYRQAPGKERELVAAISKSGGSTYYADSVKGRFTISRDYAKNTVYLQMNSLKPEDTAVYYCAADWYWWSYSDRHDYWGQGIQVTVSS | high polyreactivity |

| Sequence | polyreactivity (PSR sort gate) |
| --- | --- |
| QVQLVESGGGLVQAGGSLRLSSAASGRIFYLNAMGWYRQAPGIERELVAAINTSGDSTYYADSVKGRFTISRDNAKNTVYLQMNSLKPEDTEVYYCAAYVIGPDHFIYDYWGQGTQVTVSS | low polyreactivity |
| QVQLVESGGGLVQAGGSLRLSCAASGSTFPWYAMGWARQAPGKETELVAAITTSGGTTYYADSVKGRFTISRDNAKNTVYLQMNSLKPEDTAVYYCNKQFGYPWEYYSYSYDYWGQGTQVTVSS | low polyreactivity |
| QVQLVESGGGLVQAGGSLRLSCAASGFTFWRYAMGWYRQAPGKERELVAAINWSGGSTNYADSVKGRFTISRDNAKNTVYLQMNSLKPEDTAVYYCAVDPYQNDPSRWYTYPRRGNYWGQGTQVTVSS | high polyreactivity |
| QVQLVESGGGLVQAGGSLRLSCAASGRTFANYAMGWYRQAPGKERELVAAISSGGNTYYADSVKGRFTISRDNAKNTVYLQMNSLKPEDTAVYYCNAPWYYRYQRNEYGYWGQGTQVTVSS | high polyreactivity |
| QVQLVESGGGLVQAGGSLRLSCAASGSIISSYAMGWYRQAPGKEREFVAAISSSGDSTYADSVKGRFTISRDNAKNTVYVQMNSLKPEDTAVFYCAVGGAGSDDYWGQGSQVTVSS | low polyreactivity |
| QVQLVESGGGLVQAGGSLRVSCAASGLTFKYNALGWYIQAPGKERELVASISSGSTNYADSVKGRFTISRDNAKNSVYLEMNSLKPEDTSVYYCAASVSRGKRFRYGYVFKMDYWGQGTQLTVSS | low polyreactivity |
| QVQLVESGGGLVQAGGSLRLSCAASGSIFFYAMGWYRQAPGKERELVADITYTGGSKYADSVKGRFSISRDNAKNTVYLQMNSLKTEDTAVYYCAKLDGGLFDYWGQGTQVTVSS | low polyreactivity |
| QVQLVESSGGLVQAGGSLRLSCAASGITFYYYAMGWYRQAPGKERELVAVITGNGGRTYYADSVKGRFTISRDNAKNTVYLQMNSLKPEDTAVYYCAALYDGIYDSWGQGTQVTVSS | high polyreactivity |
| QVQLVESGGGLVQAGGSLRLSCAASGLTFPQYVMGWYRQAPGKERELVASISRSGGNTYYADSVKGRFTISRDNAKNTVYLQMNSLKPEDTAVYYCAAEYIFHYYDIFDYWGQGTQVTVSS | high polyreactivity |
| QVQLQGSGGGLVQAGGSLRLSCAASGYNFQNVPMGWNRQAPGKERELVAGIDNGTSTNYADSVNGRFTISRDNAKNTVYLQMNSLKPEDTAVYYCAAAGQADDTLGYWGQGTQVTVSS | low polyreactivity |
| QVQLVESGGGLVQAGGSLRLSCAASGFIFYPNAMGWYRQAPGKERELVAVITGGGSTYYADSVKGLFTISRDNAKNTVYLQMNSLKPEDPAVYYCAARTLRAGYRASGVRRDYWRQGTQVTVSS | high polyreactivity |
| QVHLVESGGGLVQAGGSLRLSCAASGSIFGSNAMGWYRQAPGKERELVAAISRRGGNTYYADSVKGRFTISRDNAKNTVYLQLNSLKPEDTAVYYCAAPKDPDRVQYDYWGQGTQVTVSS | low polyreactivity |
| QVQLVESGGGLVQAGGSLRLSCAASGRIFPYYTLGWYTQAPGKERELVATITTGGSTNYADSVKGRFTLSRDNAENTVYLKMNSLKPEDTAVYYCNNDGVVEVRFTGRQEYDYWGQGTQVTVSS | low polyreactivity |
| QVQLVESGGGLVQAGGSLRLSCAASGFTFAYNAMGWYRQAPGKERELVATISWSGGSPYYADSVKGRFTISRDNAKNTVYLQMNSLKPEDTAVYYCATTIFYTYYGLYDYWGQGTQVTVSS | high polyreactivity |
| QVQLVESGGGLVQAGGSLRLSCAASGSILGLYAMRWYRQATGKERELVASIPSSGSTYYAVSVKGRFTISRDYAKNTVYLQMYSLKPEDTAVYYCAAVGSYYYYIRYDYWGQGTQVTVSS | low polyreactivity |
| QVQLVESGGGLVQAGGSLRLSCAASGRTISYAMGWYRQAPGKERELVAAIRYRGGSTYYADSVKGRFTISRDNAKNTVYLQMNSQKPEDTAVYYCAAQDSYTPPILFRRGYLRYDYWGQGTQVTVSS | low polyreactivity |
| QVQLLETGGGLVQAGASLRLSCAASGSTFEDNAMGWYRQAPGKERELVAAITSGGNTYYADSVKGRFTIARDNAKNTVYLPMNSLKPEDTAVYYCNAVPFYYVFDYWGQGTQVTVSS | low polyreactivity |
| QVQLVESGGGLVQAGGSLRLSCAASGRIFRSYAMGWYRQAPGKERELVAAITWSGGSTYYADSVKGRFTISRDNAKNTVYLQMDSLKPEDTAVYYCARVVTKKYSHTGYEYWGQGTQVTVSS | high polyreactivity |
| QVQLVESGGGLVQAGGSLRLSCAASGRTFGSNAMGWYRQAPGKERELVAAISFSGGSTYYADSVKGRFTISRDNAKNTVYLQMNSLKPEDTAVYYCAAEYPQKGDRGSRRRIDGYWGQGTQVTVSS | high polyreactivity |
| QVQLVESGGGLVQAGGSLRLSCAASGIIFDYYAMGLYRHAPGKEMELVASISWSGGGTYYADSVKGRFTISRDNAKNTVYLQMNSLKPEDTAVYYCNAGDHFVHWPHVKHKKFDYWGQGTQVTVSS | low polyreactivity |
| QVQLVESGGGLVQAGGSLRLSCAASGGIFLVNDMGWYRPAPGKEWELVAAITSGGGTYYADSVKGRFTISRDNAKNTVYLQMNSLKPEDTAVYYCARDTYRQIVSNESYGYWGQGTQVTVSS | low polyreactivity |
